Here are results for 6 molecules from patent publication US20190060480A1 (NATIONAL CANCER CENTER JAPAN, published 2019).

For assay [1], the target named is T1, human transmembrane protein 180 (TMEM-180) (human, UniProt Q14CX5 1-517).
T1 construct: Membrane protein; also called TMET-180
T1 sequence: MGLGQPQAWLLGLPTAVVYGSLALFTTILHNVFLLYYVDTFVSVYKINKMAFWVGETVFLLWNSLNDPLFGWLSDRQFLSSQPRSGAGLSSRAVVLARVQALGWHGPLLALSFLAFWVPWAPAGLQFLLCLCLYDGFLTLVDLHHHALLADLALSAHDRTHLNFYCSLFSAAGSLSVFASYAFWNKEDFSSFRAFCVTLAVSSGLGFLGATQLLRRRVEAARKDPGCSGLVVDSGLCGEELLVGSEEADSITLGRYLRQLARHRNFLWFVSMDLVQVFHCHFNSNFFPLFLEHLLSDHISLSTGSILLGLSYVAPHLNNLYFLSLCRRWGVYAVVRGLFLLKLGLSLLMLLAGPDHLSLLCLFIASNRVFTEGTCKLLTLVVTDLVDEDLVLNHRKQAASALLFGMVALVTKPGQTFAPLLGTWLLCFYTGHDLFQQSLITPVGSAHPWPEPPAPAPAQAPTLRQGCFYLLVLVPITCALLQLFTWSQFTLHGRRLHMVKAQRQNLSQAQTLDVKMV
Nature of the assay: FACS on cancer-derived cell lines (Table 23).

For assay [2], the target named is T1, human transmembrane protein 180 …. Description: flow cytometry on cancer cell lines, hybridoma supernatant. Here is the method: The plate was centrifuged for 3 minutes at 440×g and 4° C. followed by removing the supernatant, adding antibody-producing hybridoma culture supernatant or antibody solution to the cell pellet at 50 μL/well and suspending therein. After allowing to react for 45 minutes on ice, the plate was washed three times with a mixture of 0.1% BSA, 2 mM EDTA and PBS at 200 μL/well. The supernatant was removed and secondary antibody was added to the cell pellet at 50 μL/well followed by suspending the cells therein. AlexaFluor 647 goat anti-rat IgG (H-L) (Life Technologies Corporation) was used for the secondary antibody after diluting 400-fold with a mixture of 0.1% BSA, 2 mM EDTA and PBS. After allowing to react for 45 minutes on ice, the plate was washed three times with a mixture of 0.1% BSA, 2 mM EDTA and PBS at 200 μL/well. After removing the supernatant, 50 ng/mL of propidium iodide, 0.1% BSA, 2 mM EDTA and PBS were added to the cell pellet at 250 μL/well followed by suspending therein. The cells stained in this manner were measured using a flow cytometer such as the Guava easyCyte 8HT (Merck Millipore Corporation) followed by analysis of the resulting data using FlowJO (Tomy Digital Biology Co., Ltd.). FACS analysis was carried out using colon cancer, brain tumor and hematologic cancer.
(§1) Flow cytometry was carried out in accordance with the procedure described in the above-mentioned section 3. […] The supernatant of a culture of hybridoma producing rat IgM antibody clone 365 was used as a negative control after similarly diluting to 1 μg/mL. […] A mixture of RPMI and 10% FBS was used to dilute each of the antibodies. Furthermore, antibody concentration in the hybridoma culture supernatant was measured by rat IgM-specific ELISA (Bethyl Laboratories).
Background: In flow cytometry, cells or beads pass a laser one at a time.

Assay [3] has the same target. Description: flow cytometry, DLD-1 parent line against TMEM-180 knockout line (considerable left shift in the knockout). Here is the method: After removing the supernatant, 50 ng/mL of propidium iodide, 0.1% BSA, 2 mM EDTA and PBS were added to the cell pellet at 250 μL/well followed by suspending therein. The cells stained in this manner were measured using a flow cytometer such as the Guava easyCyte 8HT (Merck Millipore Corporation) followed by analysis of the resulting data using FlowJO (Tomy Digital Biology Co., Ltd.). FACS analysis was carried out using colon cancer, brain tumor and hematologic cancer.
as §1

B1: anti-TMEM-180 antibody clone 1052 (antibody, V domains shown)
VH: QVQLKESGPGLMQPSETLSLTCTVSGFSLTSNGVGWVRQPLGKGLVWMGTIWTGGGTNYNSGVQSRLSISRDTSKSQVFLKMNSLQPEDTGTYYCAREYMGFDYWGQGVMVTVSS
VL: NTVMTQSPTSMFTSVGDRVTMSCKASQNVGINVGWYQQKTGQSPKRLIYWASNRDTGVPDRFTGSGSGTDFTLTISNMQAEDPAIYYCLQHNSYPRTFGGGTKLELK
notes: Rat IgM; also called 1052 antibody
As for B1, the binding result in assay [1] is “binds”.

B2: anti-TMEM-180 antibody clone 1105 (antibody, V domains shown)
VH: QVQLKESGPGLMQPSETLSLTCTVSGFSLTSNGVGWVRQPLGKGLVWMGTIWSGGGTNYNSAVQSRLSITRDTSKSQVFLKMNSLQPEDTGTYYCAREEKGFAYWGQGTLVTVSS
VL: NIVMTQSPTSMSTSVGDRVTMSCKASQNVGINVGWYQQKTGQSPKRLIYWASNRDTGVPDRFTGSGSGTDFTLTISNMQAEDPAIYYCLQHNSYPRAFGGGTKLELR
notes: Rat IgM; also called 1105 antibody
For the molecule B2, in assay [1], the binding result is listed as “binds”.

B3: rat IgM antibody clone 101 (antibody, V domains shown)
VH: QVQLKETGPGLVQPTQTLSITCTVSGFSLTSYYMQWVRQTPGKGLEWMGFIRSGGSTEYNSEFKSRLSISRDTSKNQVFLKMNSLKTEDTGVYYCARAFYGGYYFDYWGQGVMVTVSS
VL: DIVMTQSPTSISISVGERVTMNCKASQNVGSNVDWYQQKTGQSPKLLIYKASNRYTGVPDRFTGSGSGTDFTFTISNMQAEDLAVYYCMQSNTKYTFGAGTKLELK
notes: Rat IgM
For B3, the binding result in assay [2] is given as “binds”.

B4: anti-TMEM-180 antibody clone 212 (antibody, V domains shown)
VH: EVQLVESGGGLVQPGNSLKLSCAASGFTFSDYAMAWVRQSPKKGLEWVATIIYDGSSTYYRDSVKGRFTISRDNAKSTLYLQMDSLRSEDTATYYCATHWYWYFDFWGPGTMVTVSS
VL: DIQMTQSPASLSASLGETVSIECLASEGISNDLAWYQQKSGKSPQLLIYAASRLQDGVPSRFSGSGSGTRYSLKISGMQPEDEADYFCQQSYKYPLTFGSGTKLEIK
notes: Rat IgM
On to B4, for which the binding result in assay [2] is on record as “binds”.

B5: rat IgM antibody clone 98 (antibody, V domains shown)
VH: QVQLKESGPGLVQPSQTLSLTCTVSGFSLTRYNVHWVRQPTGKGLEWMGVIWTGGSTDYNSALKSRLSISRDTSKSQVFLKMNSLQTEDIATYYCARDLGYWGQGVMVTVSS
VL: DIVMTQTPLSLSVAIGQSASISCKSSQSLKYRDGKTYLNWVFQSPGQSPKRLIYQVSKLDSGVPDRFSGTGSETDFTLKISRVEAEDLGVYYCCQGSYSPHTFGAGTKLELK
notes: Rat IgM from a hybridoma; also called 98 antibody; IgM 98
B5: the binding result in assay [2] is given as “binds”.

B6: rat-human chimeric antibody clone 98 (antibody, IgG1, V domains shown)
VH: QVQLKESGPGLVQPSQTLSLTCTVSGFSLTRYNVHWVRQPTGKGLEWMGVIWTGGSTDYNSALKSRLSISRDTSKSQVFLKMNSLQTEDIATYYCARDLGYWGQGVMVTVSS
VL: DIVMTQTPLSLSVAIGQSASISCKSSQSLKYRDGKTYLNWVFQSPGQSPKRLIYQVSKLDSGVPDRFSGTGSETDFTLKISRVEAEDLGVYYCCQGSYSPHTFGAGTKLELK
notes: Clone 98 variable regions on human constant regions (IgG1), expressed in 293T cells; also called human chimeric IgG1 antibody; human chimeric IgG antibody
B6: the binding result in assay [3] is reported as “binds”.
